{"source": "the DeepSol protein solubility set"}
{"experiment": "soluble on expression in E. coli; label from the status in PepcDB or PDB records"}
{"sequence": "MGRSATPEGDPARTMELLWGGGSTPISRPRNGKPGLTLDRIVETAVSVADAEGLDAVSMRRLASELGAGAMSLYTHVPGKTELVEVMLDRALSTLEPADDADEGWRERLAAAAHDYFHLLCAHPWMLGVVALSRPVLGPGGMAKYERELRAVEGLGLSDLDMDSVVTLLDSFVAGAARAAVDAAALAAQGEADSEWWQRVAPHFEKVFDPDRFPLAARVGASAGEHHDAAYVPAHAFEFGLTRLLDGVGALIVDGGTGGE", "soluble on expression in E. coli": "not soluble"}
{"sequence": "MLICNSSFPYLQVDYKIGVKGLLAKSKEDIDKCCKGEYFMQLKYVDTKEEIIAINRKSKHIEPHLHNALEIVCVTSGSLELGVGQELYHMEKGDIGFVFPDVIHHYQVLTPGVNKATYLIASPFSIDKFADIMQSMAPEYPIIKAEKVEPEVYRVINAILETEQSDITVAQAYLQIVLARCIGKLNLVEKSSVGSNDLIYQTVSYISANFKKKFSLEEMAKDLGVGKYVLSRLFSKTFHRNFNQYLNDARLNYACHRLENTSDSITNICLDSGFESQRTFNRVFKEKYKISPSDYRSTCVKEMLS", "soluble on expression in E. coli": "not soluble"}
{"sequence": "MGSDKIHHHHHHMFKPNYHFFPITGWMNDPNGLIFWKGKYHMFYQYNPRKPEWGNICWGHAVSDDLVHWRHLPVALYPDDETHGVFSGSAVEKDGKMFLVYTYYRDPTHNKGEKETQCVAMSENGLDFVKYDGNPVISKPPEEGTHAFRDPKVNRSNGEWRMVLGSGKDEKIGRVLLYTSDDLFHWKYEGVIFEDETTKEIECPDLVRIGEKDILIYSITSTNSVLFSMGELKEGKLNVEKRGLLDHGTDFYAAQTFFGTDRVVVIGWLQSWLRTGLYPTKREGWNGVMSLPRELYVENNELKVKPVDELLALRKRKVFETAKSGTFLLDVKENSYEIVCEFSGEIELRMGNESEEVVITKSRDELIVDTTRSGVSGGEVRKSTVEDEATNRIRAFLDSCSVEFFFNDSIAFSFRIHPENVYNILSVKSNQVKLEVFELENIWL", "soluble on expression in E. coli": "not soluble"}
{"sequence": "MSLGVTMHDVAKAAGVSAITVSRVLNQPQQVSEQLREKVMQAVDALAYVPSRSASTLASAKSRTVLVLIPSLANTVFLETLTGIETVLDAAGYQMLIGNSHYDAGQELQLLRAYLQHRPDGVLITGLSHAEPFERILSQHALPVVYMMDLADDGRCCVGFSQEDAGAAITRHLLSRGKRRIGFLGAQLDERVMKRLDGYRAALDAADCRDAGLEWLDPQPSSMQMGADMLDRALAERPDCDALFCCNDDLAIGALARSQQLGIAVPERLAIAGFNDLQPAAWCTPPLTTVATPRRDIGVHAAKALLQLIDGEEPASRRADLGFRLMLRRSSEGHHHHHH", "soluble on expression in E. coli": "soluble"}
{"sequence": "MGSDKIHHHHHHMMKSRDKKDLILESIIQTYLLDNAPIGSNELNSNLCIPASTIRVYLKRLSDEGLITQLHISSGRIPTILTMQNYWQNFWEKEQDKNIHIKNESFLKELSKEFEIYCLVYGGRSLVLKEVLDLNTKFIVLDFEDEELVLKYEKEAWNFLQSLIGLDLSSIEKIALRVHFIDLVEKIASLRQNLICYRSNEERAYQIYQNDEFVKLLDCQIHRHFKESLEFEPLFKEGFMGLKVDAQFLGEDVNIILAGSVYTDYKKILQYIKEAA", "soluble on expression in E. coli": "not soluble"}
{"sequence": "MPTPARKTQKGGRKRRVNGVEEEILYIIGFFQDDSSIGLSTFFTKFCILYQDSKSNFRVLNLEMFSPENLNARKKMSQEKDTPSH", "soluble on expression in E. coli": "not soluble"}
{"sequence": "MEFYSQSRFSNWVNKIAETELDEDNPETFAVFDQMLEDVIIACLSIIRAVKEREIRKADAVKEVEKILGLIPNHDFGDELKNELFQFTLESIKAVLLSFRLYFEGKISKKSFEALLKDALKKEQSGDYEGSLNAVAQMGAKVIKGEQLPELDIPEDSAVISWIDGIDAISSVLELSKIDAPTE", "soluble on expression in E. coli": "not soluble"}
{"sequence": "MGSDKIHHHHHHMRNIVKRFGSLVANDHINFEVKRGEIHGLLGENGAGKTTLMNILYGIYQPDEGEIIFEGKKVRFKSPKDAISAGIGMVHQHFMLVPRMNVLQNIVLGYRTPSDPLINHRWVEERIERLSEKYGIDVALYEVIMNLSVGEEQRVEILKALFRDVKLLILDEPTAVLTPQEVDSLFYALKSMTKSGLTIIFITHKLKEALKVTDRITVLRRGRKVGTVITSETNERELTRMMVGRDIVLDITKPPSTPGREVLRVEDLWVRDERGNYAVKGVSFSIREGEIFGIAGVSGNGQKELEEAIAGLRKVERGRIILDGKDITAKGVAEREDIAYIPEDRIGVGLAPSLSVLENLMLKDFKKYKKRFSLNFEEMEKRAMSLVEEFSVKTPSLHSPAGTLSGGNIQRLILARELSRNPRLIIASQPTRGLDVAGIDYVRRRLIEAAMRGSAVLLISEDLDEIFQLSDRIGVMYEGEIRGIVDRKNANYEKIGYLMAGGLEVAA", "soluble on expression in E. coli": "not soluble"}
